Where a chain is given by its changes, count along the chain named. Names may count otherwise. Blank lines part the entries; values can stand above or below the binder they belong to. Ends that are not written are not given here.
How the values were obtained:
endogenous IQGAP1 [1] = molecular target: T1, endogenous IQGAP1 (human, UniProt P46940 2-1657); assay: GST pull-down from DU145 whole cell lysate, Western blot
T1 construct: also called cellular IQGAP1

endogenous IQGAP1 [2] = molecular target: T1, endogenous IQGAP1; assay: co-IP with anti-Flag from LNCaP cells expressing SFB-tagged peptides, Western blot
endogenous IQGAP1 [3] = molecular target: T1, endogenous IQGAP1; assay: co-IP with anti-Flag from transfected LNCaP cells, Western blot
endogenous IQGAP1 [4] = molecular target: T1, endogenous IQGAP1; assay: co-IP with anti-IQGAP1 from LNCaP cells transfected with HA-FOXO4, Western blot
endogenous IQGAP1 [5] = molecular target: T1, endogenous IQGAP1; assay: co-IP with anti-IQGAP1 from LNCaP cells transfected with HA-FOXO3, Western blot
endogenous IQGAP1 [6] = molecular target: T1, endogenous IQGAP1; assay: TAP of SFB-FOXO1 from 293T cells, LC-MS/MS

T1 sequence (P46940 2-1657 limits assumed): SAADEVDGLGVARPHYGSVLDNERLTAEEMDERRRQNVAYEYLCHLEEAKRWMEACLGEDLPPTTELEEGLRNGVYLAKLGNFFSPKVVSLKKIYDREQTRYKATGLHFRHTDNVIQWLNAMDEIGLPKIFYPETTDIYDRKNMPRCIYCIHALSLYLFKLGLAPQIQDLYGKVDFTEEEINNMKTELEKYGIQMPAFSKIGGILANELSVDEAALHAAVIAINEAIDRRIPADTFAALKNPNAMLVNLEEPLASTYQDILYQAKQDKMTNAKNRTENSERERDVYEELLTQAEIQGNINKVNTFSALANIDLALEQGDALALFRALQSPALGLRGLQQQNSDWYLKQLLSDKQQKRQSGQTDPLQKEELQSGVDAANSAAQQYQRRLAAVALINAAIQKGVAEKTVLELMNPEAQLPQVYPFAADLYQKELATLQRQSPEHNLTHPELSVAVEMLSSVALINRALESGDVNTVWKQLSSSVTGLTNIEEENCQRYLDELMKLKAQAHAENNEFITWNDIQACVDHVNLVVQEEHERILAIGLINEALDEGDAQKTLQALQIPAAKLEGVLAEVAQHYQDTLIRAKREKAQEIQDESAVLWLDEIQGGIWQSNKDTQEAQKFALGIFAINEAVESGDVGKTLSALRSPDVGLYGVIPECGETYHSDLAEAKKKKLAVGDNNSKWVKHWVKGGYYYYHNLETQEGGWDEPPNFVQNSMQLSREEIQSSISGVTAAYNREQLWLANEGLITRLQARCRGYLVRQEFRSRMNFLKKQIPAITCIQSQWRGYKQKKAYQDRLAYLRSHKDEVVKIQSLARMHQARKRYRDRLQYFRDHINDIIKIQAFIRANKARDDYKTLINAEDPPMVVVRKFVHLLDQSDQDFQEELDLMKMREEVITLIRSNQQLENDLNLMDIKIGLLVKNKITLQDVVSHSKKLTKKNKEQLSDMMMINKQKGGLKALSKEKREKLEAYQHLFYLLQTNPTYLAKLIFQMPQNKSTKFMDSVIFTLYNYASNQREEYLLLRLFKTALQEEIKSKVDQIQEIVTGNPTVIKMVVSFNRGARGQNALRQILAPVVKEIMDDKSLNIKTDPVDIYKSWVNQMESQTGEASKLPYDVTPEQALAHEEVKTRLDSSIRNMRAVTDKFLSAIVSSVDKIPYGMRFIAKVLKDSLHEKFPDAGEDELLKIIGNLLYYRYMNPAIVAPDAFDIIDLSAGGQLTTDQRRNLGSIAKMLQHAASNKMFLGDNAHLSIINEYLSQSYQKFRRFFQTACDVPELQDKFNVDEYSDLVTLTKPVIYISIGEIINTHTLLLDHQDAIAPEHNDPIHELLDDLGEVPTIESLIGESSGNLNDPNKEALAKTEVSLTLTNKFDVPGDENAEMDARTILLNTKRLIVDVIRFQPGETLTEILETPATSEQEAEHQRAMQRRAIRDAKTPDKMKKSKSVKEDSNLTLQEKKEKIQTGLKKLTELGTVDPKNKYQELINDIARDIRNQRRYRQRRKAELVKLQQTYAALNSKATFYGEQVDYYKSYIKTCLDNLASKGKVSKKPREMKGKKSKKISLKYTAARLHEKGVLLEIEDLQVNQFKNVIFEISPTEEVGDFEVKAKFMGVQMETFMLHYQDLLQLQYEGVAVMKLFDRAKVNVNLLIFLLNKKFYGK

binding result (endogenous IQGAP1 [2]): binds
B3: SFB-FOXO1-IQBP S319D (peptide, not shown: small tags and cut ends)
peptide: NDDFDNWSTFRPRTSDNASTISGRLSPIMT
modifications: also: SFB tag, position not given here
notes: Expressed in LNCaP cells

binding result (endogenous IQGAP1 [1]): no binding
B7: GST-FOXO1-4 (amino acids 354-503) (other, human, UniProt Q12778 354-503, looked up, not shown: a dimerising Fc or GST)
chain: KMASTLPSLSEISNPENMENLLDNLNLLSSPTSLTVSTQSSPGTMMQQTPCYSFAPPNTSLNSPSPNYQKYTYGQSSMSPLPQMPIQTLQDNKSSYGGMSQYNCAPGLLKELLTSDSPPHNDIMTPVDPGVAQPNSRVLGQNVMMGPNSV
notes: range 354-503

binding result (endogenous IQGAP1 [3]): no binding
B11: Flag-FOXO1-A3 (T24A/S256A/S319A) (other, human, UniProt Q12778 1-655, looked up)
chain: MAEAPQVVEIDPDFEPLPRPRSCAWPLPRPEFSQSNSATSSPAPSGSAAANPDAAAGLPSASAAAVSADFMSNLSLLEESEDFPQAPGSVAAAVAAAAAAAATGGLCGDFQGPEAGCLHPAPPQPPPPGPLSQHPPVPPAAAGPLAGQPRKSSSSRRNAWGNLSYADLITKAIESSAEKRLTLSQIYEWMVKSVPYFKDKGDSNSSAGWKNSIRHNLSLHSKFIRVQNEGTGKSSWWMLNPEGGKSGKSPRRRAAAMDNNSKFAKSRSRAAKKKASLQSGQEGAGDSPGSQFSKWPASPGSHSNDDFDNWSTFRPRTSANASTISGRLSPIMTEQDDLGEGDVHSMVYPPSAAKMASTLPSLSEISNPENMENLLDNLNLLSSPTSLTVSTQSSPGTMMQQTPCYSFAPPNTSLNSPSPNYQKYTYGQSSMSPLPQMPIQTLQDNKSSYGGMSQYNCAPGLLKELLTSDSPPHNDIMTPVDPGVAQPNSRVLGQNVMMGPNSVMSTYGSQASHNKMMNPSSHTHPGHAQQTSAVNGRPLPHTVSTMPHTSGMNRLTQVKTPVQVPLPHPMQMSALGGYSSVSSCNGYGRMGLLHQEKLPSDLDGMFIERLDCDMESIIRNDLMDGDTLDFNFDNVLPNQSFPHSVKTTTHSWVSG
notes: Expressed in LNCaP cells; also called triple mutant; not shown: Flag tag

binding result (endogenous IQGAP1 [6]): binds
B12: SFB-tagged FOXO1 (other, human, UniProt Q12778 1-655, looked up)
chain: B11 chain with A24T, A256S, A319S
notes: also called SFB-FOXO1; not shown: about 12 kDa, 119 amino acid

binding result (endogenous IQGAP1 [3]): binds
B13: Flag-FOXO1-S256A (other, human, UniProt Q12778 1-655, looked up)
chain: B11 chain with A24T, A319S
notes: Expressed in LNCaP cells; not shown: Flag tag

binding result (endogenous IQGAP1 [3]): no binding
B14: Flag-FOXO1-S319A (other, human, UniProt Q12778 1-655, looked up)
chain: B11 chain with A24T, A256S
notes: as for B13

binding result (endogenous IQGAP1 [3]): binds
B15: Flag-FOXO1-T24A (other, human, UniProt Q12778 1-655, looked up)
chain: B11 chain with A256S, A319S
notes: as for B13

The next lines start with the binder.

B1: GST-FOXO1-5 (amino acids 488-655) (other, human, UniProt Q12778 488-655, looked up, not shown: a dimerising Fc or GST)
chain: NSRVLGQNVMMGPNSVMSTYGSQASHNKMMNPSSHTHPGHAQQTSAVNGRPLPHTVSTMPHTSGMNRLTQVKTPVQVPLPHPMQMSALGGYSSVSSCNGYGRMGLLHQEKLPSDLDGMFIERLDCDMESIIRNDLMDGDTLDFNFDNVLPNQSFPHSVKTTTHSWVSG
notes: range 488-655
binding result (endogenous IQGAP1 [1]): no binding

B2: SFB-FOXO1-IQBP S319 (peptide, not shown: small tags and cut ends)
peptide: B3 peptide with D16S
modifications: also: SFB tag, position not given here
notes: Expressed in LNCaP cells; also called wild-type counterpart
binding result (endogenous IQGAP1 [2]): binds

B4: SFB-FOXO1-IQBP S319E (peptide, not shown: small tags and cut ends)
peptide: B3 peptide with D16E
modifications: also: SFB tag, position not given here
notes: Expressed in LNCaP cells; also called Flag-tagged FOXO1 IQBP(SE)
binding result (endogenous IQGAP1 [2]): binds

B5: GST-FOXO1-2 (amino acids 149-267) (other, human, UniProt Q12778 149-267, looked up, not shown: a dimerising Fc or GST)
chain: PRKSSSSRRNAWGNLSYADLITKAIESSAEKRLTLSQIYEWMVKSVPYFKDKGDSNSSAGWKNSIRHNLSLHSKFIRVQNEGTGKSSWWMLNPEGGKSGKSPRRRAASMDNNSKFAKSR
notes: range 149-267
binding result (endogenous IQGAP1 [1]): no binding

B6: Flag-FOXO1-537 (other, human, UniProt Q12778 1-537, looked up)
chain: MAEAPQVVEIDPDFEPLPRPRSCTWPLPRPEFSQSNSATSSPAPSGSAAANPDAAAGLPSASAAAVSADFMSNLSLLEESEDFPQAPGSVAAAVAAAAAAAATGGLCGDFQGPEAGCLHPAPPQPPPPGPLSQHPPVPPAAAGPLAGQPRKSSSSRRNAWGNLSYADLITKAIESSAEKRLTLSQIYEWMVKSVPYFKDKGDSNSSAGWKNSIRRNLSLHSKFIRVQNEGTGKSSWWMLNPEGGKSGKSPRRRAASMDNNSKFAKSRSRAAKKKASLQSGQEGAGDSPGSQFSKWPASPGSHSNDDFDNWSTFRPRTSSNASTISGRLSPIMTEQDDLGEGDVHSMVYPPSAAKMASTLPSLSEISNPENMENLLDNLNLLSSPTSLTVSTQSSPGTMMQQTPCYSFAPPNTSLNSPSPNYQKYTYGQSSMSPLPQMPIQTLQDNKSSYGGMSQYNCAPGLLKELLTSDSPPHNDIMTPVDPGVAQPNSRVLGQNVMMGPNSVMSTYGSQASHNKMMNPSSHTHPGHAQQTSAVNGR
notes: Transcription-deficient mutant that can be phosphorylated by AKT; not shown: Flag tag
binding result (endogenous IQGAP1 [3]): binds

B8: HA-FOXO4 (other, UniProt P98177 1-505, looked up)
chain: MDPGNENSATEAAAIIDLDPDFEPQSRPRSCTWPLPRPEIANQPSEPPEVEPDLGEKVHTEGRSEPILLPSRLPEPAGGPQPGILGAVTGPRKGGSRRNAWGNQSYAELISQAIESAPEKRLTLAQIYEWMVRTVPYFKDKGDSNSSAGWKNSIRHNLSLHSKFIKVHNEATGKSSWWMLNPEGGKSGKAPRRRAASMDSSSKLLRGRSKAPKKKPSVLPAPPEGATPTSPVGHFAKWSGSPCSRNREEADMWTTFRPRSSSNASSVSTRLSPLRPESEVLAEEIPASVSSYAGGVPPTLNEGLELLDGLNLTSSHSLLSRSGLSGFSLQHPGVTGPLHTYSSSLFSPAEGPLSAGEGCFSSSQALEALLTSDTPPPPADVLMTQVDPILSQAPTLLLLGGLPSSSKLATGVGLCPKPLEAPGPSSLVPTLSMIAPPPVMASAPIPKALGTPVLTPPTEAASQDRMPQDLDLDMYMENLECDMDNIISDLMDEGEGLDFNFEPDP
notes: Expressed in LNCaP cells; not shown: HA tag
binding result (endogenous IQGAP1 [4]): binds

B9: HA-FOXO3 (other, UniProt O43524 1-673, looked up)
chain: MAEAPASPAPLSPLEVELDPEFEPQSRPRSCTWPLQRPELQASPAKPSGETAADSMIPEEEDDEDDEDGGGRAGSAMAIGGGGGSGTLGSGLLLEDSARVLAPGGQDPGSGPATAAGGLSGGTQALLQPQQPLPPPQPGAAGGSGQPRKCSSRRNAWGNLSYADLITRAIESSPDKRLTLSQIYEWMVRCVPYFKDKGDSNSSAGWKNSIRHNLSLHSRFMRVQNEGTGKSSWWIINPDGGKSGKAPRRRAVSMDNSNKYTKSRGRAAKKKAALQTAPESADDSPSQLSKWPGSPTSRSSDELDAWTDFRSRTNSNASTVSGRLSPIMASTELDEVQDDDAPLSPMLYSSSASLSPSVSKPCTVELPRLTDMAGTMNLNDGLTENLMDDLLDNITLPPSQPSPTGGLMQRSSSFPYTTKGSGLGSPTSSFNSTVFGPSSLNSLRQSPMQTIQENKPATFSSMSHYGNQTLQDLLTSDSLSHSDVMMTQSDPLMSQASTAVSAQNSRRNVMLRNDPMMSFAAQPNQGSLVNQNLLHHQHQTQGALGGSRALSNSVSNMGLSESSSLGSAKHQQQSPVSQSMQTLSDSLSGSSLYSTSANLPVMGHEKFPSDLDLDMFNGSLECDMESIIRSELMDADGLDFNFDSLISTQNVVGLNVGNFTGAKQASSQSWVPG
notes: as for B8
binding result (endogenous IQGAP1 [5]): binds

B10: GST-FOXO1-1 (amino acids 1-167) (other, human, UniProt Q12778 1-167, looked up, not shown: a dimerising Fc or GST)
chain: MAEAPQVVEIDPDFEPLPRPRSCTWPLPRPEFSQSNSATSSPAPSGSAAANPDAAAGLPSASAAAVSADFMSNLSLLEESEDFPQAPGSVAAAVAAAAAAAATGGLCGDFQGPEAGCLHPAPPQPPPPGPLSQHPPVPPAAAGPLAGQPRKSSSSRRNAWGNLSYAD
notes: range 1-167
binding result (endogenous IQGAP1 [1]): no binding

From patent US20190194276A1 (MAYO FOUNDATION FOR MEDICAL EDUCATION AND RESEARCH, published 2019)
